B1: SR4_c1 (VHH)
VHH: EVQLVESGGGLVQAGDSLRLSCAASGFQLSCYCMGWFRQAPGKEREFVASITQHAFRTYYADSVKGRFTISRDDARNTVYLQMNSLKPEDTAVYYCAAAETPNILVHENYWGQGTQVTVSS
B2: SR4_f3 (VHH)
VHH: B1 VHH with E6V, G9R, M34V, H107Y
B3: SR4_t4 (VHH)
VHH: B1 VHH with E6V, G9R, M34V
B4: SR4_t6 (VHH)
VHH: B1 VHH with E6V, G9R, G10V, M34V, N109S
B5: SR4_t9 (VHH)
VHH: B1 VHH with E1K, E6V, G9R, G10V, S25T, M34V, R45L, N109S
B6: SR6_f3 (VHH)
VHH: QVQLVVSGGGLVQAGDSLRLSCAASGDCHVLWRMGWFRQAPGKEREFVAAISLDGLFTNYADSVRGRFSISADSAENTVYLQMNSLKPEDTAVYYCAAMPFFDYWGQGTQVTVSS
B7: SR6_t5 (VHH)
VHH: B6 VHH with L56Q, E76K, M99L, F102L
B8: SR6_t9 (VHH)
VHH: B6 VHH with A23T, R45L, L56Q, T58A, M99L, F102L
B9: SR6_t6 (VHH)
VHH: B6 VHH with L56Q, M99L, F102L
B10: SR2_c3 (VHH)
VHH: EVQLVESGGGLVQAGDSLRLSCAASGAFSSNVFMGWFRQAPGKEREFVASITPHHAVTDYADSVRGRFSISADSAKNTVYLQMNSLKPEDTAVYYCAAAIYRNATVLDYWGQGTQVTVSS
B11: SR2_c4 (VHH)
VHH: B10 VHH with R102C
B12: SR2_t5 (VHH)
VHH: B10 VHH with E1Q, S74T
B13: SR1_t2 (VHH)
VHH: EVRLVESGGGLVLAGDSLRLSCAASGKTGRSVIMGWFRQAPDKEREFVATITRGDDTTNYADSVKGRFTISRDDARNTVYLQMNSLKPEDTAVYYCAAVYFVNDCIVDYWGQGTQVTVSS
B14: SR4_t13 (VHH)
VHH: KVQLVVTGRVLVQAGDSLRLSCVATGFQLSCYCVGWFRQAPGKELEFVASITQHAFRTYYADSVKGRFTISRDDAQNTVYLQMNSLEPEDTAVYYCAAAETPNILVHESYWGQGTQVTVSS
B15: SR12_f3 (VHH)
VHH: QVQLVVSGGGLVQAGDSLRLSCAASGAIVHVFAMGWFRQAPGKEREFVASINLDNDATNYADSVKGRFTISRDDARNTVYLQMNSLKPEDTAVYYCNATIFMDSDLGDYWGRGTQVTVSS
B16: SR12_t6 (VHH)
VHH: B15 VHH with A57V, M102T, D105G
B17: GST-tagged SR6v15 (VHH)
VHH: B6 VHH with Q1E, V6E, C28S, H29Y, V30I, L56Q, E76K, N77Y, M99L, F102L
notes: not shown: GST, C-terminal, kept

Changes are numbered by the printed parent chain.

These results are taken from PMC8448731 (Nature Communications, 2021).

In the first experiment the target is SARS-CoV-2 spike RBD with C-terminal 3xFlag tag and N-terminal signal peptide of the spike (RBD-3xFlag) (SARS-CoV-2, Wuhan-Hu-1 type (wild type), UniProt P0DTC2).
Experiment: not given
Conditions: not given
For B1, the binding result is listed as “binds”.

With B2, the binding result is “binds”. In the case of B3, the binding result was “binds”. Turning to B4, the binding result was “binds”. Take B5: the binding result is reported as “binds”.

On to B6, for which the binding result was “binds”. Take B7: the binding result is on record as “binds”. Same read-out and setting: to B8 belongs “binds”; to B9, “binds”; to B10, “binds”. As for B11, the binding result is on record as “binds”. The same measure, in the same setting: the value for B12 was “binds”. With B13, the binding result is recorded as “binds”. On to B14, for which the binding result is given as “binds”.

For B15, the binding result is reported as “binds”. Regarding B16, the binding result is “binds”.

In the next experiment the target is recombinant RBD (ThermoFisher, RP-87678) (SARS-CoV-2, Wuhan-Hu-1 assumed, UniProt P0DTC2). Description: BLI. The conditions noted are these: one partner purified.
As a reminder, the Kd is the concentration at which binding is half-saturated. On to B17, for which the Kd was 2.18 nM.
